Measured values reported in US20160369001A1 (JCR PHARMACEUTICALS, published 2016).

Each binder was assayed against T1, recombinant human TfR (rhTfR) (Sino Biological) (human, UniProt P02786 89-760) (assay: ELISA, rhTfR coated on plate, MBP-scFv lysate supernatant, HRP-labelled anti-MBP detection, A450).
T1 construct: Bought protein, coated on 96-well plates at 5 ug/mL; also called human transferrin receptor
Protocol: E. coli (JM109) was transformed respectively with the mouse and human single-chain anti-hTfR antibody cDNA libraries, and then disseminated on LB plates containing ampicillin (Amp), and cultured overnight at 37° C. On the following day, the colonies formed on the plates were collected one by one, with which Overnight Express™ Instant LB Medium (Novagen), which had been dispensed beforehand to 96-well plates, was inoculated. After the plates were shaken overnight at 37° C., a tenth amount of Popculture Reagent (Novagen) was added to lyse the cells, and following addition of an equal amount of TBS-T, the resulting mixture was centrifuged to collect the supernatant. This supernatant was used as a sample solution.
To each well of the 96-well plates was added 5 μg/mL of recombinant human TfR (rhTfR) (Sino Biological) or 50 μL of bovine gamma globulin (Bio-Rad, Inc.), and the plates were left undisturbed at 4° C. overnight. After removal of the solution, each well was washed once with 300 μL of TBS-T. Then, to each well was added 300 μL of 1% BSA solution, and the plates were left undisturbed for 30 minutes at room temperature. After removal of the solution, 100 μL of the above sample solution was added to each well, and the plates were left undisturbed for two hours at room temperature. After removal of the solution, each well was washed three times with 300 μL of TBS-T, and 50 μL of HRP-labelled anti MBP antibody (Novagen) was added, and the plates were left undisturbed for one hour at room temperature. After removal of the solution, each well was washed three times with 300 μL of TBS-T, then 50 μL of POD substrate solution (Nacalai Tesque, Inc.) was added, and a reaction was allowed to proceed for 10-15 minutes at room temperature. […] Three clones, M11, M23 and M27 were obtained as high affinity clones to rhTfR from the mouse single-chain anti-hTfR antibody cDNA library. A clone (B84) was obtained as a high affinity clone to rhTfR from the human single-chain anti-hTfR antibody cDNA library.

T1 sequence (P02786 89-760 limits assumed): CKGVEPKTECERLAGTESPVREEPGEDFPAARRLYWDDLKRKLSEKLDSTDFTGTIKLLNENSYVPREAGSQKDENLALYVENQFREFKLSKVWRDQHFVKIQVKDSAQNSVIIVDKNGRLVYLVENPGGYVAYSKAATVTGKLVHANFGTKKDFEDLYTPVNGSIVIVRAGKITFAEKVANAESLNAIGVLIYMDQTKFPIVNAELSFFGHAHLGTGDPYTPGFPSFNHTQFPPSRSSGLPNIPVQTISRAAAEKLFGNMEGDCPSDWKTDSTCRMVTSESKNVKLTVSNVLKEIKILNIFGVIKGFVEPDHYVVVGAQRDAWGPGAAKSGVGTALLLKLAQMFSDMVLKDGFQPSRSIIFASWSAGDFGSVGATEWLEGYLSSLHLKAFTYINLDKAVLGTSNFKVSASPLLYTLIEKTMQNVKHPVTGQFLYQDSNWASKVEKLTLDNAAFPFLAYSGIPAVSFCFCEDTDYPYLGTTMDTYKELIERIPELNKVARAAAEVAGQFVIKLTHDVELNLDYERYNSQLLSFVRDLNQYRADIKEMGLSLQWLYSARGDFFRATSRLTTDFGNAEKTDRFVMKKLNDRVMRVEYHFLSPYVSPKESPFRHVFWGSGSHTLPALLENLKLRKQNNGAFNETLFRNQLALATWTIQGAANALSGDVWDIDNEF

| Binder | binding result |
| --- | --- |
| mouse single-chain anti-hTfR antibody of Clone M11 (maltose binding protein fusion, E. coli lysate supernatant) (scFv, not shown: large carriers, Tested in the screening ELISA as an MBP fusion in crude E. coli lysate supernatant and detected with an HRP-labelled anti-MBP antibody; The scFv is light chain, linker, heavy chain) scFv: DYKDIVMTQSHKFMSTSVGDRVSITCKASQDVGTAVAWYQQKPGQSPKLLIYWASTRHTGVPDRFTGSGSGTDFTLTISNVQSEDLADYFCQQYSSYLTFGAGTKLELKRGGGGSGGGGSGGGGSGGGGSEVMLVESGGDLVKPGGSLKLSCAASGFTFSSYGMSWVRQTPDKRLEWVATISSGGSYTYYPDSVKGRFTISRDNAKNTLYLQMSSLKSEDTAMYYCALLRSDWYFDVWGAGTTVTVSS | binds |
| mouse single-chain anti-hTfR antibody of Clone M27 (maltose binding protein fusion, E. coli lysate supernatant) (scFv, not shown: large carriers, Tested in the screening ELISA as an MBP fusion in crude E. coli lysate supernatant; also called Clone 27) scFv: DYKDIVMTQSHKFMSTSVGDRVSITCKASQDVGTAVAWYQQKPGQSPKLLIYWASTRHTGVPDRFTGSGSGTDFTLTISNVQSEDLADYFCQQYSSYPYTFGGGTKLEIKRGGGGSGGGGSGGGGSGGGGSQVQLQQPGSELVRPGASVKLSCKASGYTFTSYWMHWVKQRPGQGLEWIGNIYPGSGSTNYDEKFKSKATLTVDTSSSTAYMQLSSLTSEDSAVYYCTRGATALDYWGQGTTLTVSS | binds |
| mouse single-chain anti-hTfR antibody of Clone M23 (maltose binding protein fusion, E. coli lysate supernatant) (scFv, not shown: large carriers, Tested in the screening ELISA as an MBP fusion in crude E. coli lysate supernatant and detected with an HRP-labelled anti-MBP antibody) scFv: DYKDIVITQSHKFMSTSVGDRVSITCKASQDVSTAVAWYQQKPGQSPKLLIYSASYRYTGVPDRFTGSGSGTDFTFTISSVQAEDLAVYYCQQHYSTPYTFGGGTKLEIKRGGGGSGGGGSGGGGSGGGGSQVQLQQSGAELVRPGASVTLSCKASGYTFTDYEMHWVKQTPVHGLEWIGAIDPETGGTAYNQKFKGKATLTADKSSSTAYMELRSLTSEDSAVYYCTGWGFDYWGQGTTLTVSS | binds |
